From article PMC2690590, “Functional recombinant MHC class II molecules and high-throughput peptide-binding assays” (Immunome Research, 2009)

What was measured:
[1] = molecular target: DR2a (DRA*0101/DRB5*0101), biotinylated, direct LOCI assay at pH 6 (human); experiment: AlphaScreen or HTRF
[2] = molecular target: DR2a (DRA*0101/DRB5*0101) with non-biotinylated β chain, competitive LOCI assay (human); experiment: AlphaScreen or HTRF
[3] = molecular target: DR4 (DRA*0101/DRB1*0401), biotinylated, LOCI assay (human); experiment: AlphaScreen or HTRF
[4] = molecular target: DR1GrpE: DR1 α chain 1–181 and β chain 1–190 fused C-terminally to GrpE, not biotinylated (human); experiment: AlphaScreen or HTRF
[5] = molecular target: DP401: DPA1*0103/DPB1*0401 (human); experiment: AlphaScreen or HTRF
[6] = molecular target: DRB1*0813: DRA*0101/DRB1*0813 (human); experiment: AlphaScreen or HTRF
[7] = molecular target: DRB3*0301: DRA*0101/DRB3*0301 (human); experiment: AlphaScreen or HTRF
[8] = molecular target: I-E^d (mouse MHC class II) (mouse) (UniProt P01904); experiment: AlphaScreen or HTRF
[9] = molecular target: ^125I labeled (Y)HA306–318 (influenza); experiment: radioligand binding

## 6xH Influenza A (PR8) HA 109–119 peptide …
[1]
  Kd: 9 nM
[2]
  IC50: 23 nM
[3]
  Kd: 1870 nM
[4]
  IC50: 325 nM
[5]
  Kd: 1 nM
[6]
  Kd: 181 nM
[7]
  Kd: 1530 nM
[8]
  Kd: 984 nM

## DR1: DRA*0101(1–191)/DRB1*0101(1–198) (complex)
[9]
  EC50: 20 nM
